Experimental data from publication PMC7534926 (The Journal of Cell Biology, 2020).
No end group written: not given here. *: point of attachment. Biotin = O=C1N[C@H]2[C@H](CS[C@H]2CCCCC(=O)*)N1

B1: delta-catenin PDZ-binding motif peptide, De-Phospho (Biotin-TSHYPASPDSWV) (peptide)
peptide: Biotin-TSHYPASPDSWV
B2: endogenous Pdlim5 of rat hippocampal neurons (natural protein)
chain: MSNYNVSLVGPAPWGFRLQGGKDFNMPLTISSLKDGGKASQAHVRIGDVVLSIDGISAQGMTHLEAQNKIKACTGSLNMTLQRASAAAKSEPVAVQKGEPKEVVKPVPITSPAVSKVTSTTNMAYNKVPRPFGSVSSPKVTSIPSPSSAFTPAHAATSSHASPPPVAAVTPPPLSASGLHASANPSAAQCSSPPNTGKPAVHVPRQPTVTSVCSESAQELAEGQRRGSQGDIKQQNGPPRKHIVERNTEFYHIPTHSDASKKRLIEDTEDWRPRTGTTQSRSFRILAQITGTEHLKESENDNAKKANSTPEPSQQSASPLSAAESLESPGSNRPVVAGLRSAAAFKPVGSTSVKSPSWQRPNQAAPSTGRISNSASSSGTGAPMKPAVGPPQPSDQDTLVQRAEHIPAGKRTPMCAHCNQAIRGPFLVALGKSWHPEEFNCAHCKNTMAYIGFVEEKGALYCELCYEKFFAPECGRCQRKILGEVINALKQTWHVSCFVCVACGKPIRNNVFHLEDGEPYCETDYYALFGTICRGCEFPIEAGDMFLEALGSTWHDTCFVCSVCCESLEGQTFFSKKDKPLCKKHAHSVNF

Legend:
Pdlim5 = Pdlim5 (UniProt Q62920); experiment: proximity ligation assay; conditions: reference: no treatment; sites S1242
Magi1 = Magi1 (UniProt Q4L1J4); experiment: proximity ligation assay; conditions: reference: no treatment; sites S1242
Chain of Magi1 (Q4L1J4 whole entry, looked up, the tested form may be a part): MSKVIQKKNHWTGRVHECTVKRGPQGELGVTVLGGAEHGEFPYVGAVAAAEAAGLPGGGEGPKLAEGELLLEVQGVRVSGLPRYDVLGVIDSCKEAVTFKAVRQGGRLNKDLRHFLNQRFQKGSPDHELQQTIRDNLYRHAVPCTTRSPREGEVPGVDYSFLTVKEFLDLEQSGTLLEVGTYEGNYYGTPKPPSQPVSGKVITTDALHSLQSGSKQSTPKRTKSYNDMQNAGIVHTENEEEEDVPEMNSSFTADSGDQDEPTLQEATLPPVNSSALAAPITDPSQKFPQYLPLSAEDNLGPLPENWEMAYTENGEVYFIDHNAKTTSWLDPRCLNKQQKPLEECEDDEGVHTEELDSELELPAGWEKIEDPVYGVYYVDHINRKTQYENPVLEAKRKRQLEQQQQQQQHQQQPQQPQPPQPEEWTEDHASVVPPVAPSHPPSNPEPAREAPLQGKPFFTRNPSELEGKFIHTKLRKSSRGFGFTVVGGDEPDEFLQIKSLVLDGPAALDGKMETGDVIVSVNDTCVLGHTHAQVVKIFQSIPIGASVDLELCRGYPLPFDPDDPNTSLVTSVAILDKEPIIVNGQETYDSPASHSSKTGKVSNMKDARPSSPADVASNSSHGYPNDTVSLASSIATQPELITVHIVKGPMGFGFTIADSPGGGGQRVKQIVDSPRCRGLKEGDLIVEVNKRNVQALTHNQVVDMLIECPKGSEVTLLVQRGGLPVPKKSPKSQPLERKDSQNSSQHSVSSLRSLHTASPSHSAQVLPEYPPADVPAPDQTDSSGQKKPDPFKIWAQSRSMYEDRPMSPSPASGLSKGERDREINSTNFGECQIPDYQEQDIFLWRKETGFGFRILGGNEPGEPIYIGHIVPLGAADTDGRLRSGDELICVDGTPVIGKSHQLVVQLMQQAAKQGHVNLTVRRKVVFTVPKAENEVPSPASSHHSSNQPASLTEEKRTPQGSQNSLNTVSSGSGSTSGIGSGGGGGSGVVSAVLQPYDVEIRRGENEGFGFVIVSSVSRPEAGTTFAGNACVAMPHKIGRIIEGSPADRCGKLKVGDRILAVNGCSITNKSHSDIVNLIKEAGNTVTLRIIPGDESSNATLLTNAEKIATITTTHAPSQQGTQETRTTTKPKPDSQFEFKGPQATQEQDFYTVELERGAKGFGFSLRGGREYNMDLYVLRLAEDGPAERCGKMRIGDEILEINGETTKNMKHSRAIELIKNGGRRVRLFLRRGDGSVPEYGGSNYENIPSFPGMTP

Pdlim5 PDZ domain = Pdlim5 PDZ domain (UniProt Q96HC4); experiment: PDZ-domain microarray probed with biotinylated peptide
Erbin PDZ domain = Erbin PDZ domain (UniProt Q96RT1); experiment: as above; conditions: reference: unphosphorylated peptide; sites S1242,S1245
[1] = molecular target: endogenous delta-catenin of rat hippocampal neurons (rat (endogenous in primary hippocampal neurons)) (UniProt O35116); experiment: proximity ligation
Chain of endogenous delta-catenin of rat hippocampal neurons (rat (endogenous in primary hippocampal neurons)) (O35116 whole entry, stated change not applied, the tested form may be a part): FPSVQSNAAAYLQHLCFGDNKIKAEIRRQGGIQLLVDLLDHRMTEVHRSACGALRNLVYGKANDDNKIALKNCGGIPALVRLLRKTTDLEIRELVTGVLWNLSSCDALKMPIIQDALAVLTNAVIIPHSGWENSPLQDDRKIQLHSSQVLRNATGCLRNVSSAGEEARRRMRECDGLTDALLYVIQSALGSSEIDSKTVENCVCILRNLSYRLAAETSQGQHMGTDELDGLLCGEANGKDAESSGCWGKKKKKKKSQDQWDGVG

[2] = molecular target: GST fusion of the PDZ domain of Erbin (array) (human, UniProt Q96RT1 1321-1410); experiment: peptide or protein array
Chain of GST fusion of the PDZ domain of Erbin (array) (Q96RT1 1321-1410): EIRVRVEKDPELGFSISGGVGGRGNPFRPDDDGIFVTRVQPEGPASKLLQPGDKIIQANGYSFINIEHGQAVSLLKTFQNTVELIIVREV

| Molecule | PLA puncta per cell (20 µM DHPG, 10 min) [1] | PLA puncta per cell (no treatment) [1] | PLA puncta per neuron (puncta per neuron) [1] | also measured |
| --- | --- | --- | --- | --- |
| delta-catenin 20 µM DHPG, 10 min |  |  |  | other: PLA puncta per cell (Pdlim5): stronger; reference 20.46 ± 1.41; other: PLA puncta per cell (Magi1): weaker; reference 21.15 ± 7.24 |
| delta-catenin C-terminal PDZ-binding motif (from UniProt O35927) pS1242 + pS1245 peptide |  |  |  | binding against the reference (Pdlim5 PDZ domain; reference: pS1242-only peptide, sites S1245): stronger; binding against the reference (Pdlim5 PDZ domain; reference: pS1245-only peptide, sites S1242): stronger |
| delta-catenin C-terminal PDZ-binding motif (from UniProt O35927) phosphorylated peptide (doubly phosphorylated probe assumed) |  |  |  | binding against the reference (Erbin PDZ domain): same |
| endogenous Magi1 of rat hippocampal neurons (from UniProt Q4L1J4 1-1255) (natural protein) | 8.95 puncta/cell | 21.1 puncta/cell | 16 |  |
| B1 |  |  |  | binding result [2]: binds |
| B2 | 54.2 puncta/cell | 20.5 puncta/cell | 37.7 |  |
